Source: patent publication US20090291081A1 (AbbVie / Abbott, published 2009)

T1: human IL-1α (human, UniProt P01583 113-271)
T1 sequence (looked up): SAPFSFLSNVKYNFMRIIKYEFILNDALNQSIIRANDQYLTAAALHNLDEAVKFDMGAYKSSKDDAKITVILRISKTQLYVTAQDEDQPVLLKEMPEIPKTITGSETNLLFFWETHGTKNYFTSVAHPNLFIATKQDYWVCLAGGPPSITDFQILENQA


Legend:
human IL-1β [1] = molecular target: T2, human IL-1β (human, UniProt P01584 117-269); assay: Table 60 heading; dAbs from selection on antigen
T2 construct: also called IL-1beta; hIL-1β

human IL-1β [2] = molecular target: human IL-1β (human, UniProt P01584 117-269); assay: cell-based or functional assay
human IL-1α = molecular target: T1, human IL-1α; assay: cell-based or functional assay

binding result (human IL-1β [1]) | Binder | other results
binds | ABT2-108-524 (other, VH dAb) VH: EVQLLESGGGLVQPGGSLRLSCAASGFTFAEYTMMWVRQAPGKGLEWVSRIGQDGKNTYYADSVKGRFTISRDNSKNTLYLQMNSLRAEDTAVYYCAKYTGRVFNHHLFDYWGQGTLVTVSS | 
binds | ABT2-108-509 (other, VH dAb) VH: EVQLLESGGGLVQPGGSLRLSCAASGFTFAEYTMMWVRQAPGKGLEWVSRITYSGKNTYYADSVKGRFTISRDNSKNTLYLQMNSLRAEDTAVYYCAKYTGRVGVHHLFDYWGQGTLVTVSS | 
binds | ABT2-108-527 (other, VH dAb) VH: EVQLLESGGGLVQPGGSLRLSCAASGFTFAEYTMMWVRQAPGKGLEWVSRIGQDGKNTYYADSVKGRFTISRDNSKNTLYLQMNSLRAEDTAVYYCAKYTGRVFKHHLFDYWGQGTLVTVSS | 
binds | ABT2-108-601 (other, VH dAb) VH: EVQLLESGGGLVQPGGSLRLSCAASGFTFAEESWMWVRQAPGKGLEWVSRIGQDGKNTYYADSVKGRFTISRDNSKNTLYLQMNSLRAEDTAVYYCAKYTGRVGVHHLFDYWGQGTLVTVSS | 
binds | ABT2-108-534x (other, VH dAb) VH: EVQLLESGGGLVQPGGSLRLSCAASGFTFADEGMMWVRQAPGKGLEWVSRITYSGKNTYYADSVKGRFTISRDNSKNTLYLQMNSLRAEDTAVYYCAKYTGRIFSHHLFDYWGQGTLVTVSS | 
binds | ABT2-65-166S (other, VH dAb) VH: EVQLLESGGGLVQPGGSLRLSCAASGFTFSDYQMGWVRQAPGKGLEWVSSISAMGGRTYYADSVKGRFTISRDNSKNTLYLQMNSLRAEDTAVYYCAQNLVRLGRSRWMFDYWGQGTLVTVSS | 
binds | ABT2-65-201 (other, VH dAb) VH: EVQLLESGGGLVQPGGSLRLSCVASGFTFEDYQMGWVRQAPGKGLEWVSSISAMGRRTYYADSVKGRFTISRDNSKNTLYLQMNSLRAEDTAVYYCAQNLVRLGRSRWMFDYWGQGTLVTVSS | 
binds | ABT2-65-166SK (other, VH dAb) VH: EVQLLESGGGLVQPGGSLRLSCAASGFTFSDYQMGWVRQAPGKGLEWVSSISAMGGRTYYADSVKGRFTISRDNSKNTLYLQMNSLRAEDTAVYYCAKNLVRLGRSRWMFDYWGQGTLVTVSS | 
binds | ABT2-65-B3 (other, VH dAb) VH: EVQLLESGGGLVQPGGSLRLSCVASGFTFEDYQMGWVRQAPGKGLEWVSSISAMGNRAYYADSVKGRFTISRDDSKNTLYLQMNSLRAEDTAVYYCAQNLVRLGRSRWMFDYWGQGTLVTVSS | 

More lines, now with the values behind:

Binder | binding result (human IL-1β [1]) | other results
ABT2-108-521 (other, VH dAb) VH: EVQLLESGGGLVQPGGSLRLSCAASGFTFAEYTMMWVRQAPGKGLEWVSRIGQDGKNTYYADSVKGRFTISRDNSKNTLYLQMNSLRAEDTAVYYCAKYTGRILGHHLFDYWGQGTLVTVSS | binds | 
ABT2-108-607 (other, VH dAb) VH: EVQLLESGGGLVQPGGSLRLSCAASGFTFAEYTMMWVRQAPGKGLEWVSRIGQDGKNTYYRSDVKGRFTISRDNSKNTLYLQMNSLRAEDTAVYYCAKYTGRVGVHHLFDYWGQGTLVTVSS | binds | 
ABT2-108-602 (other, VH dAb) VH: EVQLLESGGGLVQPGGSLRLSCAASGFTFAEEKYMWVRQAPGKGLEWVSRIGQDGKNTYYADSVKGRFTISRDNSKNTLYLQMNSLRAEDTAVYYCAKYTGRVGVHHLFDYWGQGTLVTVSS | binds | 
ABT2-108-603 (other, VH dAb) VH: EVQLLESGGGLVQPGGSLRLSCAASGFTFAEYTMMWVRQAPGKGLEWVSRITDAGKNTYYADSVKGRFTISRDNSKNTLYLQMNSLRAEDTAVYYCAKYTGRVGVHHLFDYWGQGTLVTVSS | binds | 
ABT2-108-518 (other, VH dAb) VH: EVQLLESGGGLVQPGGSLRLSCAASGFTFAEYTMMWVRQAPGKGLEWVSRIGQDGKNTYYRMDVKGRFTISRDNSKNTLYLQMNSLRAEDTAVYYCAKYTGRVGVHHLFDYWGQGTLVTVSS | binds | 
ABT2-108-606 (other, VH dAb) VH: EVQLLESGGGLVQPGGSLRLSCAASGFTFAEYTMMWVRQAPGKGLEWVSRIGQDGKNTYYRSSVKGRFTISRDNSKNTLYLQMNSLRAEDTAVYYCAKYTGRVGVHHLFDYWGQGTLVTVSS | binds | 
ABT2-108-504 (other, VH dAb) VH: EVQLLESGGGLVQPGGSLRLSCAASGFTFADEGMMWVRQAPGKGLEWVSRIGQDGKNTYYADSVKGRFTISRDNSKNTLYLQMNSLRAEDTAVYYCAKYTGRVGVHHLFDYWGQGTLVTVSS | binds | 
ABT2-108-604 (other, VH dAb) VH: EVQLLESGGGLVQPGGSLRLSCAASGFTFAEYTMMWVRQAPGKGLEWVSRVTYDGKNTYYADSVKGRFTISRDNSKNTLYLQMNSLRAEDTAVYYCAKYTGRVGVHHLFDYWGQGTLVTVSS | binds | 
ABT2-108-612 (other, VH dAb) VH: EVQLLESGGGLVQPGGSLRLSCAASGFTFAEYTMMWVRQAPGKGLEWVSRIGQDGKNTYYADSVKGRFTISRDNSKNTLYLQMNSLRAEDTAVYYCAKYTGRIMGHHLFDYWGQGTLVTVSS | binds | 
ABT2-108-511 (other, VH dAb) VH: EVQLLESGGGLVQPGGSLRLSCAASGFTFAEYTMMWVRQAPGKGLEWVSRIGQDGKNTVIRDSVKGRFTISRDNSKNTLYLQMNSLRAEDTAVYYCAKYTGRVGVHHLFDYWGQGTLVTVSS | binds | 
ABT2-108-605 (other, VH dAb) VH: EVQLLESGGGLVQPGGSLRLSCAASGFTFAEYTMMWVRQAPGKGLEWVSRIGQDGKNTYYREDVKGRFTISRDNSKNTLYLQMNSLRAEDTAVYYCAKYTGRVGVHHLFDYWGQGTLVTVSS | binds | 
ABT2-65-8/ABT1-122 hu IgG1/K wt (bispecific antibody, V domains shown) VH: EVQLLESGGGLVQPGGSLRLSCAASGFTFEDYQMGWVRQAPGKGLEWVSSISAMGNRTYYADSVKGRFTISRDDSKNTLYLQMNSLRAEDTAVYYCAQNLVRMDSRRWMFDYWGQGTLVTVSS VL: DIQMTQSPSSLSASVGDRVTITCRASQPIWTELNWYQQKPGKAPKLLIYGSSSLQSGVPRFSGSGSGTDFTLTISSLQPEDFATYYCQQFAYFPATFGQGTKVEIKR |  | IL-1β IC50 (human IL-1β [2]): 2.7 nM; IL-1α IC50 (human IL-1α): 1000 nM
ABT2-65-203 (other, VH dAb) VH: EVQLLESGGGLVQPGGSLRLSCVASGFTFEDYQMGWVRQAPGKGLEWVSSISAMGFRTYYADSVKGRFTISRDNSKNTLYLQMNSLRAEDTAVYYCAQNLVRLGRSRWMFDYWGQGTLVTVSS | binds | 
ABT2-65-B2 (other, VH dAb) VH: EVQLLESGGGLVQPGGSLRLSCVASGFTFEDYQMGWVRQAPGKGLEWVSSISAMGRRTYYADSVKGRFTISRDDSKNTLYLQMNSLRAEDTAVYYCAQNLVRLGRSRWMFDYWGQGTLVTVSS | binds | 
